Experimental data as given in PMC7305985.

Columns and labels:
FLAG-tagged KAP1 ΔRB = assay: co-IP
[1] = target: Mononucleosomes, Recombinant Human Biotinylated (human) (UniProt P04908); assay: pull-down
[2] = target: Histone H4K5ac peptide, biotinylated (1–23) (UniProt P62805); assay: pull-down

Chain of endogenous SMAD2 (Q15796 whole entry): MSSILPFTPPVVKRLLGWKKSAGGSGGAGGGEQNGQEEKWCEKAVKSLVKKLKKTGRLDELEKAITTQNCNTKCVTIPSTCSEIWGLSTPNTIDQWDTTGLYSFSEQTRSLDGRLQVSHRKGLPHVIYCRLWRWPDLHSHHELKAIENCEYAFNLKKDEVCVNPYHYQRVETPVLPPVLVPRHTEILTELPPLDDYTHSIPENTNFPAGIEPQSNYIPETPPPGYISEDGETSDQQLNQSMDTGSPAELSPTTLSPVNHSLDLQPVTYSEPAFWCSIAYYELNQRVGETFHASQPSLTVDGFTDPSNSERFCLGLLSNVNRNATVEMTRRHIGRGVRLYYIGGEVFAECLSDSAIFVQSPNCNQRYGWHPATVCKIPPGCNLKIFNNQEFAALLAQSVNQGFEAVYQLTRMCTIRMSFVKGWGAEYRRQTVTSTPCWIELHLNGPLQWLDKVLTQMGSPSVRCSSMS
Chain of FLAG-tagged KAP1 ΔRB (Q13263 2-835, stated change not applied): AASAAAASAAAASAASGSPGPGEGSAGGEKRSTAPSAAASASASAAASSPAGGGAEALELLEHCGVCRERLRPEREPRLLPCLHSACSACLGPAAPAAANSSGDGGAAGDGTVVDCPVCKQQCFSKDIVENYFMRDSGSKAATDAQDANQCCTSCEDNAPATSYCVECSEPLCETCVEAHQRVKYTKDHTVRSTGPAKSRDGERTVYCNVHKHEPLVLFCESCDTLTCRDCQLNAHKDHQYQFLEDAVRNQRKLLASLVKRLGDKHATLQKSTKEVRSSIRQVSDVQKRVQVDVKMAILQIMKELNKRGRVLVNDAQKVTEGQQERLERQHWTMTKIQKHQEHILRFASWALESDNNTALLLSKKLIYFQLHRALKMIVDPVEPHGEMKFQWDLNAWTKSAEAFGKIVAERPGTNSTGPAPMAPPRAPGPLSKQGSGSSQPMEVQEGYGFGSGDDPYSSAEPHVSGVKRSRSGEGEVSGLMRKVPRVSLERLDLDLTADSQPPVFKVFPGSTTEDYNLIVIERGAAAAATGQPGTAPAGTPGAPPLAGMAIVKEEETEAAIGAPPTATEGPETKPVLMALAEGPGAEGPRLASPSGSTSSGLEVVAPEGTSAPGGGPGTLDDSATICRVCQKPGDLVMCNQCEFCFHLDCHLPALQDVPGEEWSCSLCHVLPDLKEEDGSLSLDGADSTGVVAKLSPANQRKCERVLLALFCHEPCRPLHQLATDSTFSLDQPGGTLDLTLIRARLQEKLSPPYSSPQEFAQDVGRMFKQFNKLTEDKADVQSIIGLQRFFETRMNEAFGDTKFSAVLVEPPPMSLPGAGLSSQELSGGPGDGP

endogenous SMAD2 (from UniProt Q15796 1-467) (natural protein)
percent decrease in binding relative to WT KAP1 (FLAG-tagged KAP1 ΔRB): 80%

GST-tagged KAP1 PHD-BD E662/663A (from UniProt Q13263 614-835) (domain or fragment)
percent reduction in binding relative to WT KAP1 [1]: 80%

GST-tagged KAP1 PHD-BD (residues 614–835) (from UniProt Q13263 614-835) (domain or fragment)
percent lower binding relative to unmodified H4 [2]: 30%
